From paper PMC9820267 come the findings set out here.

This assay addresses PSD-95 (DLG4) (UniProt Q62108). As to the kind of experiment: GST pull-down from cotransfected COS7 lysate. Conditions: reference: wild type (treatment condition of comparison not stated); sites T585,T612.

Regarding “PSD-93 (DLG2) PDZ3-SH3, 390-620 (from UniProt Q91XM9) T585A/T612A”, the “binding against the reference” value is “weaker”.
